According to patent US20070078092A1 (CUREGENICS, published 2007):
Each block holds one binder with its values, some of them ahead of it. Square brackets hold non-standard residues; d marks the D form. Ends that are not written are not given here. * marks the point of attachment. Cholesteryloxycarbonyl = CC(C)CCC[C@@H](C)[C@H]1CC[C@H]2[C@@H]3CC=C4C[C@@H](OC(=O)*)CC[C@]4(C)[C@H]3CC[C@]12C; hLeu = CC(C)CC[C@H](N)C(=O)O; Orn = NCCC[C@H](N)C(=O)O; Nva = CCC[C@H](N)C(=O)O; Dap = NC[C@H](N)C(=O)O

How the values were obtained:
Assay in all cases: cell-based or functional assay
protein kinase A (PKA) [1] = target: protein kinase A (PKA)
protein kinase B (PKB) [2] = target: protein kinase B (PKB)
protein kinase A (PKA) [3] = target: protein kinase A (PKA); remark: listed apart in the source
protein kinase B (PKB) [4] = target: protein kinase B (PKB); remark: listed apart in the source
protein kinase A (PKA) [5] = target: protein kinase A (PKA); remark: listed apart in the source
protein kinase B (PKB) [6] = target: protein kinase B (PKB); remark: listed apart in the source
protein kinase B (PKB) [7] = target: protein kinase B (PKB); remark: listed apart in the source
protein kinase B (PKB) [8] = target: protein kinase B (PKB); remark: listed apart in the source

- IC50, in vitro kinase assay PKA (protein kinase A (PKA) [1]): 5000 nM
- IC50, in vitro kinase assay PKB (protein kinase B (PKB) [2]): 100 nM
B1: PTR 6316 (peptide)
peptide: RQIKIWFQNRRMKWKKRPR[Nva]Y[Dap][hLeu]K(Cholesteryloxycarbonyl)-NH2
modifications: N-terminus assumed
SMILES: CCC[C@H](NC(=O)[C@H](CCCNC(=N)N)NC(=O)[C@@H]1CCCN1C(=O)[C@H](CCCNC(=N)N)NC(=O)[C@H](CCCCN)NC(=O)[C@H](CCCCN)NC(=O)[C@H](Cc1c[nH]c2ccccc12)NC(=O)[C@H](CCCCN)NC(=O)[C@H](CCSC)NC(=O)[C@H](CCCNC(=N)N)NC(=O)[C@H](CCCNC(=N)N)NC(=O)[C@H](CC(N)=O)NC(=O)[C@H](CCC(N)=O)NC(=O)[C@H](Cc1ccccc1)NC(=O)[C@H](Cc1c[nH]c2ccccc12)NC(=O)[C@@H](NC(=O)[C@H](CCCCN)NC(=O)[C@@H](NC(=O)[C@H](CCC(N)=O)NC(=O)[C@@H](N)CCCNC(=N)N)[C@@H](C)CC)[C@@H](C)CC)C(=O)N[C@@H](Cc1ccc(O)cc1)C(=O)N[C@@H](CN)C(=O)N[C@@H](CCC(C)C)C(=O)N[C@@H](CCCCNC(=O)O[C@H]1CC[C@@]2(C)C(=CC[C@H]3[C@@H]4CC[C@H]([C@H](C)CCCC(C)C)[C@@]4(C)CC[C@@H]32)C1)C(N)=O

- IC50, kinase assay PKA (protein kinase A (PKA) [3]): > 5000 nM
- IC50, kinase assay PKB (protein kinase B (PKB) [4]): 1000 nM
Binder: Cholesteryloxycarbonyl-RPR[Orn]E(Aminoethylsulfonamidoisoquinoline)SF-NH2 [PTR 6260]

- IC50, in vitro kinase assay PKA (protein kinase A (PKA) [1]): 300 nM
Binder: Cholesteryloxycarbonyl-RPR[Orn]E(aminopropylmercaptoisoquinoline)SF-NH2 [PTR 6300]

Further lines, the binder ahead of its results:

Binder: {Vitamin E succinate}-RPR[Nva]Y[Dap][hLeu]-NH2 [PTR 6244]
- IC50, kinase assay PKA (protein kinase A (PKA) [3]): 10000 nM
- IC50, kinase assay PKB (protein kinase B (PKB) [4]): 3000 nM

B2: PTR 6154 (peptide)
peptide: RPR[Nva]Y[Dap][hLeu]-NH2
modifications: N-terminus assumed
SMILES: CCC[C@H](NC(=O)[C@H](CCCNC(=N)N)NC(=O)[C@@H]1CCCN1C(=O)[C@@H](N)CCCNC(=N)N)C(=O)N[C@@H](Cc1ccc(O)cc1)C(=O)N[C@@H](CN)C(=O)N[C@@H](CCC(C)C)C(N)=O
- IC50, PKA kinase inhibition (protein kinase A (PKA) [5]): > 50000 nM
- IC50, PKB kinase inhibition (protein kinase B (PKB) [6]): 900 nM

B3: PTR 6252 (peptide)
peptide: [dR][dR][dR][dR][dR][dR][dR][dR][dR]GRPR[Nva]YA[hLeu]-NH2
modifications: N-terminus assumed
SMILES: CCC[C@H](NC(=O)[C@H](CCCNC(=N)N)NC(=O)[C@@H]1CCCN1C(=O)[C@H](CCCNC(=N)N)NC(=O)CNC(=O)[C@@H](CCCNC(=N)N)NC(=O)[C@@H](CCCNC(=N)N)NC(=O)[C@@H](CCCNC(=N)N)NC(=O)[C@@H](CCCNC(=N)N)NC(=O)[C@@H](CCCNC(=N)N)NC(=O)[C@@H](CCCNC(=N)N)NC(=O)[C@@H](CCCNC(=N)N)NC(=O)[C@@H](CCCNC(=N)N)NC(=O)[C@H](N)CCCNC(=N)N)C(=O)N[C@@H](Cc1ccc(O)cc1)C(=O)N[C@@H](C)C(=O)N[C@@H](CCC(C)C)C(N)=O
- % Inhibition of PKB activity at 1 µM (protein kinase B (PKB) [7]): 65%
- % Inhibition of PKB activity at 10 µM (protein kinase B (PKB) [7]): 93%
- IC50, kinase assay PKA (protein kinase A (PKA) [3]): 10000 nM
- IC50, kinase assay PKB (protein kinase B (PKB) [4]): 800 nM
- IC50, in vitro PKB inhibition (protein kinase B (PKB) [8]): 800 nM

Binder: RPR[Orn]E(NH‑(CH2)2‑NH‑SO2‑Isoquinoline)SF [PTR 6132]
- IC50, PKA kinase inhibition (protein kinase A (PKA) [5]): 12 nM
- IC50, PKB kinase inhibition (protein kinase B (PKB) [6]): 20 nM

B4: PTR 6184 (peptide)
peptide: RPR[Nva]YA[hLeu]-NH2
modifications: N-terminus assumed
SMILES: CCC[C@H](NC(=O)[C@H](CCCNC(=N)N)NC(=O)[C@@H]1CCCN1C(=O)[C@@H](N)CCCNC(=N)N)C(=O)N[C@@H](Cc1ccc(O)cc1)C(=O)N[C@@H](C)C(=O)N[C@@H](CCC(C)C)C(N)=O
- IC50, PKA kinase inhibition (protein kinase A (PKA) [5]): > 50000 nM
- IC50, PKB kinase inhibition (protein kinase B (PKB) [6]): 300 nM
